Measurements from paper PMC9750858, “Rapid biosensor development using plant hormone receptors as reprogrammable scaffolds” (Nature Biotechnology, 2022).
Read-outs that look alike come from different tables or passages of the source.

What was measured:
[1] = molecular target: T1, PYR1^PIRI / HAB1 (Arabidopsis thaliana, UniProt O49686, A160T/E130G/F159T/K59R/N119S/S122Q/S92M/V174A); test: Ligand/receptor-mediated PP2C (HAB1 phosphatase) inhibition, PYR1^PIRI; type: biochemical
T1 construct: made in house
T1 sequence (O49686 with tags, fused parts or gaps K59R/S92M/N119S/S122Q/E130G/F159T/A160T/V174A): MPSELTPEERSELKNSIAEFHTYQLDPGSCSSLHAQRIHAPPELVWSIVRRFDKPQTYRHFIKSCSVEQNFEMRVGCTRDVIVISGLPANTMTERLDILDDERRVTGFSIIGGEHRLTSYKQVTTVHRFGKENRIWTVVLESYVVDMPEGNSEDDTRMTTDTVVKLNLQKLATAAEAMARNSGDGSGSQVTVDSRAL

[2] = molecular target: T2, PYR1^PIRI (Arabidopsis thaliana, UniProt O49686, A160T/E130G/F159T/K59R/N119S/S122Q/S92M/V174A); test: Split NanoLuc luciferase complementation in yeast, NLuc^N-PYR1^PIRI/NLuc^C-HAB1; type: cell-based
T2 construct: >PYR1-PIRI; expressed in transfected cells; host or cells: Saccharomyces cerevisiae BY4742

[3] = molecular target: NLuc^N-PYR1^DIAZI (Arabidopsis) (UniProt O49686)
[4] = molecular target: NLuc^N-PYR1^PIRI (Arabidopsis) (UniProt O49686)
[5] = molecular target: NLuc^N-PYR1^4F (Arabidopsis) (UniProt O49686)
[6] = molecular target: NLuc^N-PYR1^WIN (Arabidopsis) (UniProt O49686)
[7] = molecular target: T3, ABA-PYR1M complex (Arabidopsis thaliana, UniProt O49686, H60P/N90S); test: Yeast surface display titration of HAB1 variants against PYR1^M in the presence of 500 nM ABA; type: binding; details: HAB1 variant for the ABA-PYR1M complex, 95% CI in brackets, read-out: KD2
T3 construct: c-myc (display detection tag); expressed in transfected cells; host or cells: yeast (surface display of PYR1^M); the HAB1 variants were recombinant and purified
T3 sequence (O49686 1-191 H60P/N90S): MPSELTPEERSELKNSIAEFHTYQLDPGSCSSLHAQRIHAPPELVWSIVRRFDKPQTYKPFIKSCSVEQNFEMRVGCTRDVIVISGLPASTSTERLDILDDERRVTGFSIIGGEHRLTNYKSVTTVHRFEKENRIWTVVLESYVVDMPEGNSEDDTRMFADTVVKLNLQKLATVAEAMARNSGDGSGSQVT
Experimental: For crystallographic structures, PYL2 and ΔN-HAB1^T+ were expressed in E. coli and purified as described previously. Assays for phosphatase activity and apparent Tm, measured via thermal challenge using yeast surface display, were performed essentially as previously described.
(a) Assessment of stabilized, inactivated 6xHis -MBP-ΔN -HAB1 variants. Experiments were repeated on two separat e days using independently generated batches of protein. Error bars indicate 1 SD of 3 measure ments . Sets of mutations f or each variant are noted in Supporting File 1.
MBP-ΔN -HAB1 variants using p-NPP.
HAB1 variants using YSD of PYR1M, in the presence of 500 nM ABA and 20 nM 6xHis -MBP-ΔN -HAB1 variant. The […]
here ref ers to streptavidin -phycoerythrin.
(b) Gating strategy for analysis of data shown in part (a). The f luorescence (a.u.) reported in part (a) is the gated ΔN - HAB 1T+ binding as measured by streptavidin -phycoeryt hrin (SAPE).

T2 sequence (Q9CAJ0 179-511, one chain of several, further chain): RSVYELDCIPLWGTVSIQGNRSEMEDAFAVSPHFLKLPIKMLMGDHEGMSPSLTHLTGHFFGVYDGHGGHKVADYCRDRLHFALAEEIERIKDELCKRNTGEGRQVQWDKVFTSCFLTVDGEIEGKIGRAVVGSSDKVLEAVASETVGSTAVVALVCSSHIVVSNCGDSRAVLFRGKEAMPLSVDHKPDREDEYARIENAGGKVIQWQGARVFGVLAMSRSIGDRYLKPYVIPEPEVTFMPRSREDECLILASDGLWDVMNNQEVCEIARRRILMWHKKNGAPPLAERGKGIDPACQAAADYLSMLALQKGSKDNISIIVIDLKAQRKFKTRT

CCN(CC)c1nc(C)cc(OP(=S)(OC)OC)n1 [Pirimiphos-methyl, pirimiphos-methyl]
EC50 [1]: 58 nM | ligand concentrations required for activation of PYR1^PIRI above background ([1]; HAB1 inhibition and Y2H assays): low-nanomolar concentrations | EC50 [2]: 19 nM

NLuc^C-ΔN-HAB1 (from UniProt Q9CAJ0 179-511) (enzyme)
receptor-mediated inhibition of HAB1 phosphatase activity in vitro; EC50 of the ligand diazinon [3]: 36 nM | receptor-mediated inhibition of HAB1 phosphatase activity in vitro; EC50 of the ligand pirimiphos-methyl [4]: 58 nM | in vitro inhibition of ΔN-HAB1 phosphatase activity by recombinant 6×His-PYR1^4F (25 nM receptor, 25 nM ΔN-HAB1, 4-methylumbelliferyl phosphate); EC50 of the ligand 4F-MDMB-BUTINACA [5]: 102 nM | in vitro inhibition of ΔN-HAB1 phosphatase activity by recombinant 6×His-PYR1^WIN (50 nM receptor, 25 nM ΔN-HAB1, 4-methylumbelliferyl phosphate); EC50 of the ligand WIN 55,212-2 [6]: 72 nM

B1: T+ (723): stabilized, catalytically inactive ΔN-HAB1 derivative with 15 mutations (pJS723) (protein)
chain: RSVYELDSIPLWGTVSIQGNASEMEAAFAVVPHFLKLPIKMLMGDHEGMSPSLTHLTGHFFGVYDGHGGSKVADYCRDRLHEALAEEIERIKDELSKRNTGEGRQVQWKKVFTNCFLTVDGEIEGKIGRAVVGSSDKVLEAVASETVGSTAVVALVCSSHIVVANCGDSRAVLFRGKEAIPLSVDHKPDREDEYARIEAAGGKVIQWQGARVFGVLAMSRSIGDRYLKPYVIPEPEVTFMPRSEEDECLILASDGLWDVMSNQEVCEIARRRILMWHKKNGAPPLAERGKGIDPACQAAADYLSKLALQKGSKDNISIIVIDLKAQRKFKTRT
modifications: biotinylated in the ELISA-like assays
Kd ([7]; Biorep 1): 2.13 nM | Kd ([7]; Biorep 2): 4.76 nM
